# Test results from patent US20230203146A1 (Boehringer Ingelheim, published 2023).
# Like-named read-outs stand apart in the source and are kept apart here.
# T1: N-terminally FLAG-tagged mouse Ang2 (HEK293T conditioned medium) (mouse, UniProt O35608 19-496)
# T1 construct: may be a nucleotide entry; also called mAng2; FLAG-mAng2
# T1 sequence: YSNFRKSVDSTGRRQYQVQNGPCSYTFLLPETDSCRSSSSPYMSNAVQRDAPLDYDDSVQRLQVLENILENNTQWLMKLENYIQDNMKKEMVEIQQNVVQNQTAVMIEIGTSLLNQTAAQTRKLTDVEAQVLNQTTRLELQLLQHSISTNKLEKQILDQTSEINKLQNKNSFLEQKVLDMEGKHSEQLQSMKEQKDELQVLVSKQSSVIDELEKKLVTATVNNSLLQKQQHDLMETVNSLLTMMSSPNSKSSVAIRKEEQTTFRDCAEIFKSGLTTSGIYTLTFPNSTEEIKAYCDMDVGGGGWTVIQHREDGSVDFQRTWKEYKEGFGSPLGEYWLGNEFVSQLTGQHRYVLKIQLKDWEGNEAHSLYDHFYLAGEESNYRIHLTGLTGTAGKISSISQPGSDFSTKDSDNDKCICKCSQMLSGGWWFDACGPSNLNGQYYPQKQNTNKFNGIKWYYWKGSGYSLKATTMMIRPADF
# T2: recombinant human Ang2-FLD (human, UniProt O15123 275-496, limits assumed)
# T2 construct: domain: FLD; not used
# T2 sequence (looked up): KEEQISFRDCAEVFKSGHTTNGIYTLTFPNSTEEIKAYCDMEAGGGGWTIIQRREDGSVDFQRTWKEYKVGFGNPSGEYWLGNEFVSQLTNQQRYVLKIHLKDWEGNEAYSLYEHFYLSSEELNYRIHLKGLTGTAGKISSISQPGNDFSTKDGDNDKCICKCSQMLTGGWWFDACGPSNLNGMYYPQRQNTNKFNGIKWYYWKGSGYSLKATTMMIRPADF
# T3: recombinant mouse Ang2-FLD (mouse, UniProt O35608 275-496, limits assumed)
# T3 construct: domain: FLD
# T3 sequence (looked up): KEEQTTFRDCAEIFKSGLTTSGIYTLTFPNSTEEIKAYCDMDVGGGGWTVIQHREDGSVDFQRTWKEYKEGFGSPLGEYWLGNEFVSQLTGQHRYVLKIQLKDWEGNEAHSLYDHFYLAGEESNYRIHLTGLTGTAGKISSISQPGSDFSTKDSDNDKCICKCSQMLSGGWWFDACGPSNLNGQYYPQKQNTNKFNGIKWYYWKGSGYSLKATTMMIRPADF
# T4: N-terminally FLAG-tagged cynomolgus Ang2 (HEK293T conditioned medium) (cynomolgus, UniProt O15123 19-496 (human entry), limits assumed)
# T4 construct: may be a nucleotide entry; also called cAng2; FLAG-cAng2
# T4 chain: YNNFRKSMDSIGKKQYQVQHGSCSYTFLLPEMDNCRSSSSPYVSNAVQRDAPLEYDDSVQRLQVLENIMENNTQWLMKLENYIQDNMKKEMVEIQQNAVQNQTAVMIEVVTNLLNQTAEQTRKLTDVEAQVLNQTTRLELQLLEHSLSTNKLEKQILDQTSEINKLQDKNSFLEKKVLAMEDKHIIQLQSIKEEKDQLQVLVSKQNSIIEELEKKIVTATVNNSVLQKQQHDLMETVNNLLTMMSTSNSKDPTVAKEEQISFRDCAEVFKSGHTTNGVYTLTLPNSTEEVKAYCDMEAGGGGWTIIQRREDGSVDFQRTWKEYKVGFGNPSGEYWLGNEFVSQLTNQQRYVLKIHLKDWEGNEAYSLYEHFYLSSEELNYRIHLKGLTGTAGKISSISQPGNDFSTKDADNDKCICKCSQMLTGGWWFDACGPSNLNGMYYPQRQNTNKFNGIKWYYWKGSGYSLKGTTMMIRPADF
# T5: FLAG-tagged mouse Ang2 (mouse, UniProt O35608 19-496)
# T5 construct: N-terminally FLAG-tagged, conditioned medium of HEK293T cells; also called mAng2; FLAG-mAng2
# T5 sequence: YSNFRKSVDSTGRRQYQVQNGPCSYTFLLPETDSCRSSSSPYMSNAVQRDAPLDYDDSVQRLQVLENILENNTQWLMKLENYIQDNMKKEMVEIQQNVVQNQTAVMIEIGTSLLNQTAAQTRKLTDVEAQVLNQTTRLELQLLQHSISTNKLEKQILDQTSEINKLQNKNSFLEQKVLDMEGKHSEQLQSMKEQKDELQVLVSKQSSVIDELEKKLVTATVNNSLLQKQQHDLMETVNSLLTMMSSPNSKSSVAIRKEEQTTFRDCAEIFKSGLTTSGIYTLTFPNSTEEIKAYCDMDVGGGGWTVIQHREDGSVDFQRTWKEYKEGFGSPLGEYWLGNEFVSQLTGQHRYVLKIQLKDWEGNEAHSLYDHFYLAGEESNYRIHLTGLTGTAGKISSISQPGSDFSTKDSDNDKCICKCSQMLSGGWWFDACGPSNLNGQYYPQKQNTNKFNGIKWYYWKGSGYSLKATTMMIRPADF
# T6: FLAG-tagged cynomolgus Ang2 (cynomolgus, UniProt O15123 19-496 (human entry), limits assumed)
# T6 construct: N-terminally FLAG-tagged, conditioned medium of HEK293T cells; also called cAng2; FLAG-cAng2
# T6 chain: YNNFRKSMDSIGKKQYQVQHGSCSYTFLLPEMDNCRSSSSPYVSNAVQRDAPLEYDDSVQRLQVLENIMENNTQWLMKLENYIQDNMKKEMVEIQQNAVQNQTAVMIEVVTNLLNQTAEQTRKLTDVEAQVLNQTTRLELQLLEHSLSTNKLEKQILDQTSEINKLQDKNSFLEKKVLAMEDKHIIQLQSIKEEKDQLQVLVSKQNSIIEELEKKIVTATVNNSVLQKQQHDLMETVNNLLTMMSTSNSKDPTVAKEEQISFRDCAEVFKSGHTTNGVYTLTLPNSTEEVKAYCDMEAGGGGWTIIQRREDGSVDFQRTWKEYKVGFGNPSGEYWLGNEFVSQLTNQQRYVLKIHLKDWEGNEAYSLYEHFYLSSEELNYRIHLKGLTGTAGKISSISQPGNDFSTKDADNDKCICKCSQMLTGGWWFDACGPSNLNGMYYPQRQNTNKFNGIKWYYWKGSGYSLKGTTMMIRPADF
# Experiments:
# [1] = molecular target: T1, N-terminally FLAG-tagged mouse Ang2 …; assay: competition ELISA, FLAG-mAng2 on coated mTie2-Fc
# Method: (§1) In brief, 2 μg/mL of recombinant mouse Tie2-Fc or cyno Tie2-Fc is coated overnight at 4° C. in a 96-well MaxiSorp plate (Nunc, Wiesbaden, Germany). Coated wells are blocked with a 1% casein solution.
# [2] = molecular target: T1, N-terminally FLAG-tagged mouse Ang2 …; assay: competition ELISA, periplasmic extract, FLAG-mAng2 on mTie2/Fc
# Method: In brief, human Tie2/Fc chimera (R&D Systems, Minneapolis, Minn., USA) is biotinylated using N-hydroxysulfosuccinimide ester of biotin (Thermo Fisher Scientific, Rockford, Ill., USA). […] To this mixture, the Acceptor beads and 0.3 nM biotinylated human Tie2/Fc chimeras are added and further incubated for 2 hours at room temperature. Finally, streptavidin conjugated Donor beads (Perkin Elmer, Waltham, Mass., US) are added and the mixture is incubated for an additional 2 hours at room temperature. Assay buffer is PBS+0.03% Tween-20+0.1% BSA. Fluorescence is measured using the Envision Multilabel Plate reader (Perkin Elmer, Waltham, Mass., USA) using an excitation wavelength of 680 nm and an emission wavelength of 520 nm. […] In brief, human or mouse Tie2/Fc chimera (R&D Systems, Minneapolis, Minn., USA) are immobilized at 2 μg/mL overnight at 4° C. in a 96-well MaxiSorp plate (Nunc, Wiesbaden, Germany). Wells are blocked with a 1% casein solution. […] This mixture is added to the Tie2/Fc coated well and incubated for 2 hours at room temperature. Residual binding of Ang is detected using HRP-conjugated anti-FLAG M2 antibody (Sigma, St Louis, Mo., USA).
# [3] = molecular target: T1, N-terminally FLAG-tagged mouse Ang2 …; assay: competition ELISA, FLAG-mAng2 on coated mTie2-Fc; remark: listed apart in the source
# Method: as §1
# [4] = molecular target: T7, recombinant cynomolgus Ang2-FLD (cynomolgus); assay: SPR (Biacore T100), binder on CM5 chip, Ang2-FLD as analyte
# T7 construct: domain: FLD; also called cyno Ang2-FLD
# Method: (§2) In brief, VHH and benchmark compounds are immobilized on a CM5 chip via amine coupling. […] Ang2-FLD species are allowed to associate for 2 min and to dissociate for 20 min at a flow rate of 45 μL/min. In between injections, the surfaces are regenerated with a 10 sec pulse of 25 mM NaOH and 60 sec stabilization period. Association/dissociation data are evaluated by fitting a 1:1 interaction model (Langmuir binding). The affinity constant KD is calculated from resulting association and dissociation rate constants kₐ and kd and are depicted in Table 8.
# [5] = molecular target: T2, recombinant human Ang2-FLD; assay: as above
# Method: as §2
# [6] = molecular target: T3, recombinant mouse Ang2-FLD; assay: as above
# Method: as §2
# [7] = molecular target: T4, N-terminally FLAG-tagged cynomolgus …; assay: competition ELISA, FLAG-cAng2 on coated cTie2-Fc
# Method: as §1
# FLAG-tagged mouse Ang2 = molecular target: T5, FLAG-tagged mouse Ang2; assay: competition ELISA: FLAG-mAng2 binding to coated mTie2-Fc
# Method: as §1
# [8] = molecular target: T6, FLAG-tagged cynomolgus Ang2; assay: competition ELISA: FLAG-cAng2 binding to coated cTie2-Fc
# Method: as §1
binder,measurement,setting,value
"VHH 8A11 (VHH, also called 008A11; not shown: C-terminal c-myc tag and His6 tag) VHH: EVQLVESGGGLVQAGGSLRLSCAASGRTFSSYAMGWFRQAPGKELEFVTAVSWSGGSTYYADSVKGRFTISRDSAKNTVYLQMNSLKPEDTAVYYCAAQSTIVEVTTLEAYDYWGQGTQVTVSS",IC50,[1],442 nM
same,% inh,[2],13%
"VHH 13A02 (VHH, also called 013A02; not shown: C-terminal c-myc tag and His6 tag) VHH: EVQLVESGGGLVQAGGSLRLSCAASGGTFSSYSMGWFRQAPGKEREFIAAINWNGDSTYYEDSVKGRFTVSRDNAKNTVYLQMNSLKPEDTAVYYCAATGWGRAYEQAYEYDVWGQGTQVTVSS",IC50,[3],26.6 nM
same,IC50,[1],6.1 nM
same,Kd,[4],8.7 nM
same,koff,[4],0.094 s⁻¹
same,kon,[4],1.1e+07 M⁻¹ s⁻¹
same,Kd,[5],9.9 nM
same,koff,[5],0.091 s⁻¹
same,kon,[5],9.2e+06 M⁻¹ s⁻¹
same,Kd,[6],18 nM
same,koff,[6],0.034 s⁻¹
same,kon,[6],1.9e+06 M⁻¹ s⁻¹
same,IC50,[7],33.1 nM
same,% inh,[2],97%
"VHH 32H10 (VHH, also called 032H10; not shown: C-terminal c-myc tag and His6 tag) VHH: EVQLVESGGGLVQAGGSLRLSCAASGFDFEDYDMGWFRQAPGKEREGVSYISSSDGSTYYTDSVKGRFTISSDNAKNTVYLQMNSLIPEDTAVYYCAARPWTRRVYGSSWLARSLDEYEYDYWGQGTQVTVSS",IC50,[3],13 nM
same,% inh,[2],58%
"VHH 00920 (VHH, not shown: small tags and cut ends) VHH: EVQLVESGGGLVQPGGSLRLSCAASGFALDYYAIGWFRQAPGKEREGVSCISSSGGITYYADSVKGRFTISRDNSKNTVYLQMNSLRPEDTAVYYCATDSGGYIDYDCMGLGYDYWGQGTLVTVSS",IC50,FLAG-tagged mouse Ang2,0.15 nM
same,IC50,[8],0.23 nM
"VHH 00929 (VHH, not shown: small tags and cut ends) VHH: EVQLVESGGGLVQPGGSLRLSCAASGFALDYYAIGWFRQAPGKEREGVSCISSSGGITYYADSVKGRFTISRDNSKNTVYLQMNSLRPEDTAVYYCATESGGYIDYDCQGLGYDYWGQGTLVTVSS",IC50,FLAG-tagged mouse Ang2,0.15 nM
same,IC50,[8],0.25 nM
"VHH 00926 (VHH, not shown: small tags and cut ends) VHH: EVQLVESGGGLVQPGGSLRLSCAASGFALDYYAIGWFRQAPGKEREGVSCISSSGGITYYADSVKGRFTISRDNSKNTVYLQMNSLRPEDTAVYYCATDSGGYIDYDCQGLGYDYWGQGTLVTVSS",IC50,FLAG-tagged mouse Ang2,0.2 nM
same,IC50,[8],0.29 nM
"VHH 00927 (VHH, not shown: small tags and cut ends) VHH: EVQLVESGGGLVQPGGSLRLSCAASGFALDYYAIGWFRQAPGKEREGVSCISSSGGITYYADSVKGRFTISRDNSKNTVYLQMNSLRPEDTAVYYCATDSGGYIDYDCRGLGYDYWGQGTLVTVSS",IC50,FLAG-tagged mouse Ang2,0.19 nM
same,IC50,[8],0.33 nM
